Measurements published in paper doi:10.1101/2021.02.07.430161 (bioRxiv, 2021).
Where two headings read alike, the source gives them in different places. Each block holds one binder with its values, some of them ahead of it.

Tests used:
[1] = target: PABPC1 full-length (His);Paip2 (Paip2a) full-length (human?;human?, UniProt P11940;Q9BPZ3 1-636;1-127, |); assay: EMSA
[2] = target: T1, Poly(A) binding protein cytoplasmic 1 (PABPC1), full-length recombinant, His-tagged (UniProt P11940-1 1-636); assay: SEC-MALS
T1 sequence (P11940 whole entry): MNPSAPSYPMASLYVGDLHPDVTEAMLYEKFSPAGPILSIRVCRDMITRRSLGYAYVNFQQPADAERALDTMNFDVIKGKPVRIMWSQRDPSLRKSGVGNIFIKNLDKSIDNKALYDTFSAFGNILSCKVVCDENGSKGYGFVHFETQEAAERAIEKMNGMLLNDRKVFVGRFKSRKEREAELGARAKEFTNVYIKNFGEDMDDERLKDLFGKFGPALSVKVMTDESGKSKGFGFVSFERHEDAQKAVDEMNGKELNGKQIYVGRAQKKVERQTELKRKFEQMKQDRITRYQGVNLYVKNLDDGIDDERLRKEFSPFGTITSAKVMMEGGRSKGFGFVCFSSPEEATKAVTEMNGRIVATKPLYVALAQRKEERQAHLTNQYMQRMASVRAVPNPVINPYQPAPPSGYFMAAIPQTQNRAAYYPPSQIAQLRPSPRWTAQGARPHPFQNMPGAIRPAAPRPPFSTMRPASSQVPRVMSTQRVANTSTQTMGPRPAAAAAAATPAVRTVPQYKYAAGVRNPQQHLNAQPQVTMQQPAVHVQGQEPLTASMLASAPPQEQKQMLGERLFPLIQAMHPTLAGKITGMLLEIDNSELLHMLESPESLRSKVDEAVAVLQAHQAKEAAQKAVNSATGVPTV

[3] = target: T1, Poly(A) binding protein cytoplasmic 1 …; assay: SEC-MALS; remark: listed apart in the source
[4] = target: PABPC1 RRM23 (98-293) (UniProt P11940-1 98-293); assay: native gel or EMSA
Chain of PABPC1 RRM23 (98-293) (P11940 98-293): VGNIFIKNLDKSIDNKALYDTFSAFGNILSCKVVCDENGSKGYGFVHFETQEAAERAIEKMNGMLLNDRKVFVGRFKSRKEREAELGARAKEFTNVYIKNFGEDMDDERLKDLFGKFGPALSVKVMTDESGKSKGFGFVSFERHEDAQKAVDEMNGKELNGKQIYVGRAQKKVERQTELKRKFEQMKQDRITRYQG

[5] = target: PABPC1 (1-372) (UniProt P11940-1 1-372); assay: native gel or EMSA
Chain of PABPC1 (1-372) (P11940 1-372): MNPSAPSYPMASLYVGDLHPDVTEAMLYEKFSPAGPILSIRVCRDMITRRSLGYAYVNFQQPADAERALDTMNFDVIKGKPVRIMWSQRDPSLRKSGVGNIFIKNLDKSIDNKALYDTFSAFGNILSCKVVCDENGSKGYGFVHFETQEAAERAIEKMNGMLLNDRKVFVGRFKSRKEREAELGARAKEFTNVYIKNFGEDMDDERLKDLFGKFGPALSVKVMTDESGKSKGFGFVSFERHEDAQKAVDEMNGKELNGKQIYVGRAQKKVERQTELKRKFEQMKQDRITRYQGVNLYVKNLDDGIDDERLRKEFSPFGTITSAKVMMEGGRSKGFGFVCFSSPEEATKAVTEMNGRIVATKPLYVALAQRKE

Chain of PABPC1 full-length (His);Paip2 (Paip2a) full-length (P11940 whole entry, one chain of several): as the sequence (P11940 whole entry) above

Binder: AAAAAAAAAAAAAAAAAAAAAAAAA (ssRNA) [r(A)25]
- binding result [1]: binds

- stoichiometry N [2]: 1 Paip2 per PABPC1
- stoichiometry N [3]: 2 Paip2 per PABPC1
B1: PABPC1-interacting protein 2 (Paip2), full-length recombinant (natural protein, UniProt Q9BPZ3 1-127, looked up)
chain: MKDPSRSSTSPSIINEDVIINGHSHEDDNPFAEYMWMENEEEFNRQIEEELWEEEFIERCFQEMLEEEEEHEWFIPARDLPQTMDQIQDQFNDLVISDGSSLEDLVVKSNLNPNAKEFVPGVKYGNI

- binding result [4]: binds
- binding result [5]: binds
B2: Paip2 (22-75) (domain or fragment, UniProt Q9BPZ3 22-75, looked up)
chain: GHSHEDDNPFAEYMWMENEEEFNRQIEEELWEEEFIERCFQEMLEEEEEHEWFI
